Read-outs that look alike come from different tables or passages of the source.
Key:
[1] = system: Golgi apparatus casein kinase (G-CK); settings: literature value (ref. 20), cited from earlier work
[2] = biological target: T1, FAM20C (Mus musculus, UniProt Q5MJS3); assay: FAM20C in vitro kinase assay with dephosphorylated alpha-Casein as substrate; type: biochemical; settings: 5 minute assays
T1 construct: His (from vector pcDNA3.1/V5-His B) (C); made in house; host or cells: HEK293T
T1 sequence (Q5MJS3 88-579): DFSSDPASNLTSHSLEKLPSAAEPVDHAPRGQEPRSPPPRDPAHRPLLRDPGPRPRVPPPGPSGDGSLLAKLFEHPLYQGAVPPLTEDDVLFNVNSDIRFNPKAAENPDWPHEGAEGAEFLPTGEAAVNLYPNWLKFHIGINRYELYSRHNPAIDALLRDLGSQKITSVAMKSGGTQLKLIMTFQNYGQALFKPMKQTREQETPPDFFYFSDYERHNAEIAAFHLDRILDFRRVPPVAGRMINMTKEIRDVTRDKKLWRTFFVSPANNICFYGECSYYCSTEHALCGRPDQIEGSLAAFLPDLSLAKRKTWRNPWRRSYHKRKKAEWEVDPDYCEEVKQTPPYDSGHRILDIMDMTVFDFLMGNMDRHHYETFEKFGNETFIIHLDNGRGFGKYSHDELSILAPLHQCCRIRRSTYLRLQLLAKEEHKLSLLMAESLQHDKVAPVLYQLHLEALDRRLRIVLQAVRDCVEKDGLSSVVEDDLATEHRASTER
Description: For FAM20C:V5 purification, pcDNA-FAM20C:V5 was transfected to HEK293T cells, and FAM20C:V5 was purified from conditioned media using anti-V5 agarose beads (Sigma). Condition media were incubated with anti-V5 affinity gel (Sigma) overnight at 4° C. Agarose beads were collected by centrifugation, and washed 5 times with TBS. Proteins were eluted using V5 peptides in TBS (Sigma, final concentration: 100 μg/ml). For purification of OPN:FLAG, BSP:FLAG, DMP1:FLAG, DSPP:FLAG and MEPE:FLAG, condition media were incubated with anti-FLAG M2 affinity gel (Sigma) overnight at 4° C. Agarose beads were collected by centrifugation, and washed 5 times with TBS. Purified quantification was performed on gels stained by SYPRO Ruby Protein Gel Stain (Invitrogen), using BSA as a standard.
FAM20C kinase assays were performed in 10 μl reactions, with 500 μM ATP, including 3 μCi (0.05 μM) of [gamma-^32P]ATP (6000 Ci/mmol, PerkinElmer), 50 mM Tris (pH 7.0), 10 mM MnCl2, 0.1% BSA, purified FAM20C:V5 (5 ng, […]), and dephosphorylated alpha-Casein (0.1 μg, Sigma). […] Radioactivity within the gels was detected using a Molecular Dynamics Phosphor Imager. For quantitation of gamma-^32P incorporation, bands were cut out of the gels using the Phosphor Imager pictures as a reference, and then counted by liquid scintillation using a Beckman Coulter LC6500. […]

[3] = biological target: T1, FAM20C; assay: FAM20C kinase assay with peptide substrates (P81 phosphocellulose paper); type: biochemical; settings: in vitro kinase reaction, FIG. 6
Description: FAM20C kinase assays were performed in 10 μl reactions, with 500 μM ATP, including 3 μCi (0.05 μM) of [gamma-^32P]ATP (6000 Ci/mmol, PerkinElmer), 50 mM Tris (pH 7.0), 10 mM MnCl2, 0.1% BSA, purified FAM20C:V5 (5 ng, […]), and dephosphorylated alpha-Casein (0.1 μg, Sigma). The kinase reaction was linear at 5 minutes, and the reaction rate was dependent on enzyme and substrate concentrations. Reactions were stopped by adding SDS sample buffer and boiling, and one half of the reaction volume was subjected to SDS-PAGE. Radioactivity within the gels was detected using a Molecular Dynamics Phosphor Imager. For quantitation of gamma-^32P incorporation, bands were cut out of the gels using the Phosphor Imager pictures as a reference, and then counted by liquid scintillation using a Beckman Coulter LC6500. Myelin Basic Protein (0.5 μg, NEB) and affinity-purified Fat2-3:FLAG (0.1 μg)^8 were used as control substrates. To determine pH-dependency, the pH in the reaction buffer was varied using Tris-HCl buffers. Synthesized peptides were designed from the sequence of human Osteopontin 115Asp to 132Leu, adding three basic amino acids (Arg-Lys-Arg) to its N-terminus to enable peptide binding to phosphocellulose paper (P81, Upstate). Peptides were purchased from Peptide2.0. Peptide1 ([…]; SEQ ID NO: 41), Peptide2 ([…]; SEQ ID NO: 42), Peptide3 ([…]; SEQ ID NO: 43), and Peptide4 ([…]; SEQ ID NO: 44).
(§1) FAM20C kinase assay with peptides substrates were performed in 10 μl reactions, with 500 μM ATP, including 3 μCi (0.05 μM) of [gamma-^32P]ATP (6000 Ci/mmol, PerkinElmer), 50 mM Tris (pH 7.0), 10 mM MnCl2, 0.1% BSA, purified FAM20C:V5 and peptides. Casein Kinase I (500 units, NEB) was used as a control kinase. mutant versions (5 ng, […]), and peptides (2.5 μg, 1 nmol as a standard condition. 250 ng, […] in FAM20C mutants). Reactions were stopped by adding 1.5 μl 0.1N—HCl, and one half of the reaction volume was pipetted on to P81 phospho-cellulose filter paper^27. The filter papers were washed with 0.5% phosphoric acid and subjected to liquid scintillation counting.

[4] = biological target: T2, Casein Kinase I (Rattus norvegicus, UniProt Q06486); assay: Casein Kinase I control kinase assay with peptide substrates; type: biochemical; settings: in vitro kinase reaction, FIG. 6
T2 construct: purchased NEB
T2 sequence (Q06486 1-317 limits assumed): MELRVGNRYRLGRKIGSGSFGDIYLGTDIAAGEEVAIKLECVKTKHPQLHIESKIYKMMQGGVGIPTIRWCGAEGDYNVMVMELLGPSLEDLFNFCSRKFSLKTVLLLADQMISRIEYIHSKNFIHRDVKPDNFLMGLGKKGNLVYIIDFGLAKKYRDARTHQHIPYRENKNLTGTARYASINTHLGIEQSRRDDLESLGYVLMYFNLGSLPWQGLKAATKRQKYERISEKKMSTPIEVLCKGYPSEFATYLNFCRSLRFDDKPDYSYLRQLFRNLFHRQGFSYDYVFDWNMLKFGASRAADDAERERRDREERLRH
Description: as §1

Row | phosphorylation of peptide by FAM20C [3] | phosphorylation of peptide by CKI [4] | Compound | also measured
1 |  |  | Nc1ncnc2c1ncn2[C@@H]1O[C@H](COP(=O)(O)OP(=O)(O)OP(=O)(O)O)[C@@H](O)[C@H]1O [ATP] | Km ([1]; read-out: Km for ATP originally measured for G-CK): 80 µM; Km ([2]; FAM20C, dephosphorylated alpha casein as substrate, read-out: Km for ATP): 78 µM
2 |  |  | Casein | Km ([1]; read-out: Km for α-Casein for G-CK): 12 µM; Km ([2]; linear reaction conditions, average of several independent experiments, read-out: Michaelis constant (Km) of FAM20C for Casein): 1.5 µM
3 | still efficiently phosphorylated | reduced, but similar levels of activity | RKRDDAHQSDEAHHSDESDEL [OPN-ASARM^2S-A, derivative in which the other two Ser residues were changed to Ala] | 
4 | phosphorylated much less effectively | reduced, but similar levels of activity | RKRDDSHQADESHHADEADEL [OPN-ASARM^3S-A, peptide in which only the three G-CK consensus sites were changed to Ala] | 
5 | is a FAM20C substrate | phosphorylated | RKRDDSHQSDESHHSDESDEL [OPN-ASARM, amino acids 115-132 of human OPN with N-terminal Arg-Lys-Arg] | 
